Test results: patent publication US20110065645A1, “Compositions and Methods for Modulating Neuron Degeneration and Neuron Guidance” (The Regents of the University of California, priority 2009, published 2011)

Columns and labels:
cortical neurons = experiment: Cortical neuron death/survival assay under PKCζ inhibition (Tuj1, TUNEL, DAPI staining); assay type: cell-based
Source text: 1. PKCζ is required for survival of cortical neurons. E15.5 cortical neurons were dissociated and cultured for 2 days in the presence of various concentrations of a cell membrane penetrating myristoylated peptide derived in the pseudosubstrate domain of PKC (FIGS. 12A-12D). This peptide is a specific inhibitor of PKCζ.
2. Axon degeneration procedes cell body death when PKC is inhibited. We examined the timing of axon degeneration and cell body death. […] The death induced by PKCζ inhibition is much faster than Aβ peptide induced neuronal death (FIG. 12D), probably because the PKCζ is an essential kinase and peptide inhibition causes instant death, whereas Aβ has to bind to cell surface receptor and trigger a signaling cascade to cause death, which requires a longer time.
3. Wnts are trophic factors for cortical neurons. […] Nuclear shrinkage (pyknosis) is a hallmark of neuronal cell death. Using DAPI staining, we can visualize the cell nuclei (FIG. 14B). […] Initial cortical axons and dendrite form and grow but axons start to disintegrate at E18.5 (FIG. 14D, from Wang et al 2006),^(13) (FIGS. 12F, 12K). Based on our preliminary results, we propose that Wnts are not only axon guidance molecules but also regulate neuronal survival and axon degeneration acting via PKC (FIG. 15).
3. Survival and cell death assays for screening of monoclonal antibodies and small compounds. We use the same cell death/survival assay as described in FIGS. 12A-14D and use microtubule staining to analyze the integrity of microtubules, DAPI stain to measure the size of cell nuclei and TUNEL staining to assay cell death. Microtubule disassembly is quantified by staining intensity of Tuj1 and Tau antibodies. The size of cell nuclei is binned into difference sizes and the distribution of the nuclei size is used as quantification of pyknosis (FIG. 14C).

Fzd3 = molecular target: T1, Fzd3 (Mus musculus, UniProt Q61086); experiment: Surface biotinylation and avidin immunoprecipitation of Fzd3 in HEK293T cells; assay type: cell-based
T1 construct: expressed in transfected cells; host or cells: HEK293T
T1 sequence (Q61086 23-666): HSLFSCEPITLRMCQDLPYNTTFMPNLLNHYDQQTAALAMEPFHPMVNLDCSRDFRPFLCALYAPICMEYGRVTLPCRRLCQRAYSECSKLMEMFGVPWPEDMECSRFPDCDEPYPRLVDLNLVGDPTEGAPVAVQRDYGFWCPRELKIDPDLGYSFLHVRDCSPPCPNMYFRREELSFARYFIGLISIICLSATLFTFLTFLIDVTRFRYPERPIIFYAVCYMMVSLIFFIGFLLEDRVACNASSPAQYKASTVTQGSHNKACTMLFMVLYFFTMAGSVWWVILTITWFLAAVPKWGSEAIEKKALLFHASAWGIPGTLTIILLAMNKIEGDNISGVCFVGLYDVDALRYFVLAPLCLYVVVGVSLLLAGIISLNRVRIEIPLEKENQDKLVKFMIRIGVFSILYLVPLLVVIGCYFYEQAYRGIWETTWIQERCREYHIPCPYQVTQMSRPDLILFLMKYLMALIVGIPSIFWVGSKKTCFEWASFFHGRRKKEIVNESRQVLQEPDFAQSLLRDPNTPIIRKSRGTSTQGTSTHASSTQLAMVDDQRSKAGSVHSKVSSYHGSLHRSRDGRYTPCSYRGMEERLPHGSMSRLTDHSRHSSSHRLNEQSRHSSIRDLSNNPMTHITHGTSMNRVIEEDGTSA
Source text: Dvl and Vgl have antagonistic functions on Fzd3 phosphorylation. […] We transfected Fzd3-mCherry in HEK293T cells then surface biotinylated and immunoprecipitated (IP) the surface molecules with strepavidin-conjugated beads to obtain membrane-localized proteins. […] We tested whether these two Fzd3 bands represent phosphorylation states of the Frizzled3 protein, one being phosphorylated/hyperphosphorylated Fzd3 (p-Fzd3) and the other non-phosphorylated Fzd3. […] Phosphorylation of Fzds has been shown previously in Xenopus oocytes
It has been proposed that Frizzled internalization is necessary for PCP signaling and phenotypes (Gagliardi et al., 2008; Yu et al., 2007). However, it has never been directly tested whether the cell surface level of Fzd, the Wnt-PCP receptor, changes upon Wnt addition. By using our surface biotinylation and immunoprecipitation with avidin, we show here, 15 minutes after Wnt addition, cell surface level of Fzd3-EGFP is diminished (FIG. 18C, Avidin IP, lane 3 anti-EGFP IB). […] This Fzd3 receptor oscillation from and to the membrane appeared to be a Wnt-Fzd specific effect because a non-Wnt binding receptor, such as the Insulin receptor stayed the same throughout the Wnt stimulation (FIG. 18C, Avidin IP, anti-Insulin Rβ IB). The Wnt-dependent Fzd3 oscillation is quantified in FIG. 18D (cross symboled line). […] In addition, PCP components appeared to effect this Wnt dependent oscillation of Fzd3 to and from the membrane. When Dvl1 is over expressed with Fzd3, we found within 30 minutes Fzd3 is unable to be internalized (FIG. 25B, lanes 5-7 and line). However, upon the introduction of Vangl2 into the transfection mix, Fzd3 oscillation is resumed (FIG. 25B, lanes 8-10 and circle symboled line).
Surface biotinylation and immunopreciptiation. 30 hours after transfection with the indicated constructs into HEK293T cells (FuGene, Roche), followed by 8-hour incubation in Optimem and subsequent bath application of recombinant Wnt5a (R&D Systems), surface proteins were subsequently labeled on ice with 1 mg/ml of Sulfo-NHS-LC-Biotin reagent (Pierce). The cell lysates were collect over a period of 30 minutes on ice in the following lysis buffer: 20 mM Tris pH7.6, 150 mM NaCl, 1% Triton, 0.1% SDS, 2.5 mM EDTA, 2.5 mM EGTA, protease Inhibitors (Roche). For the membrane immunoprecipitation, 600 ug of protein extracts were incubated overnight and retrieved by NeutrAvidin-coated Agarose beads (Pierce), the bound fraction was boiled and loaded on SDS-PAGE gel and analyzed by western blot analysis. To visualize the input amount 20 ug of total lysate was loaded, and for the Avidin IPs the total amount was loaded for western blot analysis. The following primary antibodies were used for the immunoblots: α-Frizzled3 (Wang et al., 2006), α-Vangl2 (Santa Cruz), α-mCherry/DsRed (Clontech), α-Jun (Cell Signaling), α-phospho-Jun (Cell Signaling), α-JNK (Cell Signaling), α-phospho-JNK (Cell Signaling), α-Flag (Sigma), α-GAPDH (Chemicon), α-Insulin Rβ (Santa Cruz).

B1: Wnt5a: recombinant Wnt5a protein (R&D Systems) (protein, UniProt P41221 62-380, looked up)
Protein Wnt-5a: IIGAQPLCSQLAGLSQGQKKLCHLYQDHMQYIGEGAKTGIKECQYQFRHRRWNCSTVDNTSVFGRVMQIGSRETAFTYAVSAAGVVNAMSRACREGELSTCGCSRAARPKDLPRDWLWGGCGDNIDYGYRFAKEFVDARERERIHAKGSYESARILMNLHNNEAGRRTVYNLADVACKCHGVSGSCSLKTCWLQLADFRKVGDALKEKYDSAAAMRLNSRGKLVQVNSRFNSPTTQDLVYIDPSPDYCVRNESTGSLGTQGRLCNKTSEGMDGCELMCCGRGYDQFKTVQTERCHCKFHWCCYVKCKKCTEIVDQFVCK
Cortical neurons; 5 um pseudosubstrate peptide
  axon degeneration / reduction of microtubule staining (Tuj1): much less degeneration was seen
Cortical neurons; 10 um pseudosubstrate peptide
  axons remaining judged by Tuj1 staining: more axons still remain
Cortical neurons; pretreatment before pseudosubstrate peptide
  cell death induced by PKC inhibition: block/reduce the cell death
Fzd3; high concentration (200 ng/ml), batch #1
  time of Fzd3-EGFP internalization: 15 minute and two hour
Fzd3; high concentration, batch #2
  time of Fzd3-EGFP internalization: 15 min and 60 min
Fzd3; low concentration (100 ng/ml), batch #1
  time of Fzd3-EGFP internalization: 30 min
Fzd3; upon the addition of Wnt5a
  cell surface levels of Fzd3: reduction of cell surface levels of Fzd3
